This note sets out measurements from patent US20230094162A1.

Where two headings read alike, the source gives them in different places.

Assay [1] addresses CD137 expressed on the cell surface (CHO/CD137 cells) (UniProt Q07011). Description: flow cytometry on CHO/CD137 cells (Surface Binding). A general note: Flow cytometry measures light scatter and fluorescence of single cells or particles in a stream.
The target is the same in assay [2]. Put plainly: cell-based or functional assay.
For assay [3] the target is unchanged. Description: flow cytometry (FACS) on CHO cells expressing CD137, MFI.
The target of assay [4] is PD-L1 expressed on the cell surface (CHO/PD-L1 cells) (UniProt Q9NZQ7).
PD-L1 expressed on the cell surface (CHO/PD-L1 cells), sequence (Q9NZQ7 19-290): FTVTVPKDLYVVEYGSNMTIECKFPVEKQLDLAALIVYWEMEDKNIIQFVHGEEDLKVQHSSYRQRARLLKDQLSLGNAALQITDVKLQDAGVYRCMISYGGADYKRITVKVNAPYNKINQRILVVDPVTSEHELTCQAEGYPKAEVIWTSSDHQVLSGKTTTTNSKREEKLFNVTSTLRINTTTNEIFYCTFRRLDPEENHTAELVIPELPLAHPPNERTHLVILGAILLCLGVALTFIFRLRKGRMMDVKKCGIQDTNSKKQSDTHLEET
Assay [5] shares this target. Put plainly: flow cytometry (FACS) on CHO cells expressing PD-L1, MFI.

CD137 expressed on the cell surface (CHO/CD137 cells), sequence (Q07011 24-255 limits assumed): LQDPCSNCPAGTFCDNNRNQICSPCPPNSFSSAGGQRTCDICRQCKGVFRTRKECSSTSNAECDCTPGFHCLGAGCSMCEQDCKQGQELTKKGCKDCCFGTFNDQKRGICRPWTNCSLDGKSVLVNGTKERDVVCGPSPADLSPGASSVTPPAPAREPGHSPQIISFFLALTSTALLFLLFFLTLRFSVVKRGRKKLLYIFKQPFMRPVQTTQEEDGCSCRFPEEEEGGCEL

The substance non-specific mAb (antibody) had an MFI max in assay [1] of 149 MFI. Also, in assay [2], the Reporter Assay (RLU), 0.08 µg/mL came out at 1250 RLU; the Reporter Assay (RLU), IgG conc 0.02 µg/mL turned out to be 1020 RLU; the Reporter Assay (RLU), IgG conc 0.1 µg/mL came to 1240 RLU.

Broadly, the EC50 (read off the curve) is the concentration giving half of the maximal effect. The substance “replica of the agonistic anti-CD137 mAb urelumab (r-urelumab) (antibody)” came in with an EC50 (read off the curve) in assay [3] of 0.06 µg/mL.

Regarding “replica of the anti-PD-L1 antibody atezolizumab (r-atezolizumab)”, the EC50 (read off the curve) in assay [4] came to 0.3 µg/mL; in assay [5], 0.01 µg/mL.
